Laboratory results: patent US20190300590A1 (PROTAGONIST THERAPEUTICS, published 2019)
Bridges are numbered along the chain shown (N, C = ends). Primed or numbered codes have the meaning given here. Where no end group is shown, it is not given here. [ ]: non-standard residue; d: D form. Bip = N[C@@H](Cc1ccc(-c2ccccc2)cc1)C(=O)O; 1Nal = N[C@@H](Cc1cccc2ccccc12)C(=O)O; NMeH = CN[C@@H](Cc1c[nH]cn1)C(=O)O; NMeE = CN[C@@H](CCC(=O)O)C(=O)O; Aic′ = not defined here; Aib = CC(C)(N)C(=O)O; PEG1 = NCCOCCC(=O)O; AEA = NCCOCC(=O)O

T1: IL23R_huFC (human, UniProt Q5VWK5 24-353)
T1 sequence (looked up): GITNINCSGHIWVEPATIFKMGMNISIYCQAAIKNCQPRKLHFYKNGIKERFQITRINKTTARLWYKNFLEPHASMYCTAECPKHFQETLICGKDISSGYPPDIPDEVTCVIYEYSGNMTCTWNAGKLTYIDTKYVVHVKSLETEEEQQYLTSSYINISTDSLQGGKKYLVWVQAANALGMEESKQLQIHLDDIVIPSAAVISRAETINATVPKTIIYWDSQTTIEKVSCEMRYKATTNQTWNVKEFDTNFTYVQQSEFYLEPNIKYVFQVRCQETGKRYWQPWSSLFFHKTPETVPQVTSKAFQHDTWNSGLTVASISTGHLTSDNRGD


What follows are binders tested against T1, IL23R_huFC (assay: IL23-IL23R competitive ELISA).

Row | IC50 | Binder
1 | > 1000 nM | Ac-CADWVC-NH2 (disulfide 1-6 (inferred)) [Ac-CADWVC-NH2]
2 | > 1000 nM | Ac-CADWVCYWHRCGWWGC-NH2 (disulfide (positions not given here)) [Ac-CADWVCYWHRCGWWGC-NH2]
3 | > 1000 nM | Ac-CADWVCY[Bip]HTFG[AEA][dK]-NH2 (disulfide 1-6; SMILES CC(=O)N[C@H]1CSSC[C@@H](C(=O)N[C@@H](Cc2ccc(O)cc2)C(=O)N[C@@H](Cc2ccc(-c3ccccc3)cc2)C(=O)N[C@@H](Cc2c[nH]cn2)C(=O)N[C@H](C(=O)N[C@@H](Cc2ccccc2)C(=O)NCC(=O)NCCOCC(=O)N[C@H](CCCCN)C(N)=O)[C@@H](C)O)NC(=O)[C@H](C(C)C)NC(=O)[C@H](Cc2c[nH]c3ccccc23)NC(=O)[C@H](CC(=O)O)NC(=O)[C@H](C)NC1=O) [Ac-CADWVCY-[Bip]-HTFG-[AEA]-[(D)Lys]-NH2]
4 | > 1000 nM | Ac-CQTWQCYW[NMeE]NG[AEA][dK] (disulfide 1-6 (inferred)) [Ac-CQTWQCYW[N-MeGlu]-NG-[AEA]-[(D)-Lys]]
5 | > 1000 nM | Ac-CADWVCY[Aic′]HTFG[AEA][dK]-NH2 (disulfide 1-6) [Ac-CADWVCY-[Aic]-HTFG-[AEA]-[(D)Lys]-NH2]

More lines, now with the values behind:

Row | Binder | IC50
6 | Ac-CADWVCY[1Nal]H[Aib][dF]G-NH2 (disulfide 1-6; SMILES CC(=O)N[C@H]1CSSC[C@@H](C(=O)N[C@@H](Cc2ccc(O)cc2)C(=O)N[C@@H](Cc2cccc3ccccc23)C(=O)N[C@@H](Cc2c[nH]cn2)C(=O)NC(C)(C)C(=O)N[C@H](Cc2ccccc2)C(=O)NCC(N)=O)NC(=O)[C@H](C(C)C)NC(=O)[C@H](Cc2c[nH]c3ccccc23)NC(=O)[C@H](CC(=O)O)NC(=O)[C@H](C)NC1=O) [Ac-CADWVCY-[1-Nal]-H-[Aib]-[(D)Phe]-G-NH2] | > 1000 nM
7 | Ac-CADWVCY[1Nal]H[Aib]FG-NH2 (disulfide 1-6; SMILES CC(=O)N[C@H]1CSSC[C@@H](C(=O)N[C@@H](Cc2ccc(O)cc2)C(=O)N[C@@H](Cc2cccc3ccccc23)C(=O)N[C@@H](Cc2c[nH]cn2)C(=O)NC(C)(C)C(=O)N[C@@H](Cc2ccccc2)C(=O)NCC(N)=O)NC(=O)[C@H](C(C)C)NC(=O)[C@H](Cc2c[nH]c3ccccc23)NC(=O)[C@H](CC(=O)O)NC(=O)[C@H](C)NC1=O) [Ac-CADWVCY-[1-Nal]-H-[Aib]-FG-NH2] | > 1000 nM
8 | Ac-CADWVCY[1Nal][NMeH][dA]F[Aib]-NH2 (disulfide 1-6; SMILES CC(=O)N[C@H]1CSSC[C@@H](C(=O)N[C@@H](Cc2ccc(O)cc2)C(=O)N[C@@H](Cc2cccc3ccccc23)C(=O)N(C)[C@@H](Cc2c[nH]cn2)C(=O)N[C@H](C)C(=O)N[C@@H](Cc2ccccc2)C(=O)NC(C)(C)C(N)=O)NC(=O)[C@H](C(C)C)NC(=O)[C@H](Cc2c[nH]c3ccccc23)NC(=O)[C@H](CC(=O)O)NC(=O)[C@H](C)NC1=O) [Ac-CADWVCY-[1-Nal]-[N-Me-His]-[(D)Ala]-F-[Aib]-NH2] | > 1000 nM
9 | Ac-CADWVCY[1Nal]HTF[Aib]-NH2 (disulfide 1-6; SMILES CC(=O)N[C@H]1CSSC[C@@H](C(=O)N[C@@H](Cc2ccc(O)cc2)C(=O)N[C@@H](Cc2cccc3ccccc23)C(=O)N[C@@H](Cc2c[nH]cn2)C(=O)N[C@H](C(=O)N[C@@H](Cc2ccccc2)C(=O)NC(C)(C)C(N)=O)[C@@H](C)O)NC(=O)[C@H](C(C)C)NC(=O)[C@H](Cc2c[nH]c3ccccc23)NC(=O)[C@H](CC(=O)O)NC(=O)[C@H](C)NC1=O) [Ac-CADWVCY-[1-Nal]-HTF-[Aib]-NH2] | > 1000 nM
10 | Ac-CADWVCY[1Nal]H[PEG1]G-NH2 (disulfide 1-6; SMILES CC(=O)N[C@H]1CSSC[C@@H](C(=O)N[C@@H](Cc2ccc(O)cc2)C(=O)N[C@@H](Cc2cccc3ccccc23)C(=O)N[C@@H](Cc2c[nH]cn2)C(=O)NCCOCCC(=O)NCC(N)=O)NC(=O)[C@H](C(C)C)NC(=O)[C@H](Cc2c[nH]c3ccccc23)NC(=O)[C@H](CC(=O)O)NC(=O)[C@H](C)NC1=O) [Ac-CADWVCY-[1-Nal]-H-[AEP]-G-NH2] | > 1000 nM

Target: T1, IL23R_huFC
Assay: IL23-IL23R competitive ELISA
Remark: another data set of the same source

Row | IC50 | Binder
11 | < 500 nM | Ac-CQTWQCYWRENG[AEA][dR]-NH2 (disulfide 1-6; SMILES CC(=O)N[C@H]1CSSC[C@@H](C(=O)N[C@@H](Cc2ccc(O)cc2)C(=O)N[C@@H](Cc2c[nH]c3ccccc23)C(=O)N[C@@H](CCCNC(=N)N)C(=O)N[C@@H](CCC(=O)O)C(=O)N[C@@H](CC(N)=O)C(=O)NCC(=O)NCCOCC(=O)N[C@H](CCCNC(=N)N)C(N)=O)NC(=O)[C@H](CCC(N)=O)NC(=O)[C@H](Cc2c[nH]c3ccccc23)NC(=O)[C@H]([C@@H](C)O)NC(=O)[C@H](CCC(N)=O)NC1=O) [Ac-CQTWQCYWRENG-[AEA]-[(D)Arg]-NH2]
12 | < 500 nM | Ac-CQTWQCYWRENG[AEA][dK]-NH2 (disulfide 1-6; SMILES CC(=O)N[C@H]1CSSC[C@@H](C(=O)N[C@@H](Cc2ccc(O)cc2)C(=O)N[C@@H](Cc2c[nH]c3ccccc23)C(=O)N[C@@H](CCCNC(=N)N)C(=O)N[C@@H](CCC(=O)O)C(=O)N[C@@H](CC(N)=O)C(=O)NCC(=O)NCCOCC(=O)N[C@H](CCCCN)C(N)=O)NC(=O)[C@H](CCC(N)=O)NC(=O)[C@H](Cc2c[nH]c3ccccc23)NC(=O)[C@H]([C@@H](C)O)NC(=O)[C@H](CCC(N)=O)NC1=O) [Ac-CQTWQCYWRENG-[AEA]-[(D)-Lys]-NH2, listing 2 of 3 here]
13 | < 500 nM | Ac-CQTWQCYWRENG[AEA][dK]-NH2 (disulfide 1-6; SMILES CC(=O)N[C@H]1CSSC[C@@H](C(=O)N[C@@H](Cc2ccc(O)cc2)C(=O)N[C@@H](Cc2c[nH]c3ccccc23)C(=O)N[C@@H](CCCNC(=N)N)C(=O)N[C@@H](CCC(=O)O)C(=O)N[C@@H](CC(N)=O)C(=O)NCC(=O)NCCOCC(=O)N[C@H](CCCCN)C(N)=O)NC(=O)[C@H](CCC(N)=O)NC(=O)[C@H](Cc2c[nH]c3ccccc23)NC(=O)[C@H]([C@@H](C)O)NC(=O)[C@H](CCC(N)=O)NC1=O) [Ac-CQTWQCYWRENG-[AEA]-[(D)-Lys]-NH2, listing 3 of 3 here]
14 | < 500 nM | Ac-CQTWQCYWRRNG[AEA][dK]-NH2 (disulfide 1-6; SMILES CC(=O)N[C@H]1CSSC[C@@H](C(=O)N[C@@H](Cc2ccc(O)cc2)C(=O)N[C@@H](Cc2c[nH]c3ccccc23)C(=O)N[C@@H](CCCNC(=N)N)C(=O)N[C@@H](CCCNC(=N)N)C(=O)N[C@@H](CC(N)=O)C(=O)NCC(=O)NCCOCC(=O)N[C@H](CCCCN)C(N)=O)NC(=O)[C@H](CCC(N)=O)NC(=O)[C@H](Cc2c[nH]c3ccccc23)NC(=O)[C@H]([C@@H](C)O)NC(=O)[C@H](CCC(N)=O)NC1=O) [Ac-CQTWQCYWRRNG-[AEA]-[(D)-Lys]-NH2]
15 | < 500 nM | Ac-CQTWQCYWRKNG[AEA][dK]-NH2 (disulfide 1-6; SMILES CC(=O)N[C@H]1CSSC[C@@H](C(=O)N[C@@H](Cc2ccc(O)cc2)C(=O)N[C@@H](Cc2c[nH]c3ccccc23)C(=O)N[C@@H](CCCNC(=N)N)C(=O)N[C@@H](CCCCN)C(=O)N[C@@H](CC(N)=O)C(=O)NCC(=O)NCCOCC(=O)N[C@H](CCCCN)C(N)=O)NC(=O)[C@H](CCC(N)=O)NC(=O)[C@H](Cc2c[nH]c3ccccc23)NC(=O)[C@H]([C@@H](C)O)NC(=O)[C@H](CCC(N)=O)NC1=O) [Ac-CQTWQCYWRKNG-[AEA]-[(D)-Lys]-NH2, listing 2 of 2 here]

Continued, binder first:

Row | Binder | IC50
16 | Ac-CQDWQCYWRENG[AEA][dK]-NH2 (disulfide 1-6 (inferred)) [Ac-CQDWQCYWRENG-[AEA]-[(D)-Lys]-NH2] | < 500 nM
17 | Ac-CQTWQCYWRTNG[AEA][dK]-NH2 (disulfide 1-6; SMILES CC(=O)N[C@H]1CSSC[C@@H](C(=O)N[C@@H](Cc2ccc(O)cc2)C(=O)N[C@@H](Cc2c[nH]c3ccccc23)C(=O)N[C@@H](CCCNC(=N)N)C(=O)N[C@H](C(=O)N[C@@H](CC(N)=O)C(=O)NCC(=O)NCCOCC(=O)N[C@H](CCCCN)C(N)=O)[C@@H](C)O)NC(=O)[C@H](CCC(N)=O)NC(=O)[C@H](Cc2c[nH]c3ccccc23)NC(=O)[C@H]([C@@H](C)O)NC(=O)[C@H](CCC(N)=O)NC1=O) [Ac-CQTWQCYWRTNG-[AEA]-[(D)-Lys]-NH2] | < 500 nM
18 | Ac-CQTWQCYWRKNG[AEA][dK]-NH2 (disulfide 1-6; SMILES CC(=O)N[C@H]1CSSC[C@@H](C(=O)N[C@@H](Cc2ccc(O)cc2)C(=O)N[C@@H](Cc2c[nH]c3ccccc23)C(=O)N[C@@H](CCCNC(=N)N)C(=O)N[C@@H](CCCCN)C(=O)N[C@@H](CC(N)=O)C(=O)NCC(=O)NCCOCC(=O)N[C@H](CCCCN)C(N)=O)NC(=O)[C@H](CCC(N)=O)NC(=O)[C@H](Cc2c[nH]c3ccccc23)NC(=O)[C@H]([C@@H](C)O)NC(=O)[C@H](CCC(N)=O)NC1=O) [Ac-CQTWQCYWRKNG-[AEA]-[(D)-Lys]-NH2, listing 1 of 2 here] | < 500 nM
19 | Ac-CQTWQCYWRENG[AEA][dK]-NH2 (disulfide 1-6; SMILES CC(=O)N[C@H]1CSSC[C@@H](C(=O)N[C@@H](Cc2ccc(O)cc2)C(=O)N[C@@H](Cc2c[nH]c3ccccc23)C(=O)N[C@@H](CCCNC(=N)N)C(=O)N[C@@H](CCC(=O)O)C(=O)N[C@@H](CC(N)=O)C(=O)NCC(=O)NCCOCC(=O)N[C@H](CCCCN)C(N)=O)NC(=O)[C@H](CCC(N)=O)NC(=O)[C@H](Cc2c[nH]c3ccccc23)NC(=O)[C@H]([C@@H](C)O)NC(=O)[C@H](CCC(N)=O)NC1=O) [Ac-CQTWQCYWRENG-[AEA]-[(D)-Lys]-NH2, listing 1 of 3 here] | < 500 nM
